Reference: publication PMC10821498, “Radiosynthesis Standardization and Preclinical Assessment of the [^68Ga]Ga-DOTA-Ubiquicidin29-41: A Translational Study Targeting Differential Diagnosis of Infectious Processes” (Pharmaceuticals, 2023)
Where a SMILES comes first, the peptide text is derived from it. The star is where a group is joined. DOTA = O=C(O)CN1CCN(CC(=O)O)CCN(CC(=O)*)CCN(CC(=O)O)CC1

Key:
[1] = format: physicochemical
Procedure: The n-octanol/water partition coefficient (P) of [^68Ga]Ga-DOTA-UBI29-41 was determined using the shake-flask method described elsewhere. A 50 µL aliquot (~2 MBq) of the final product was added to a mixture of n-octanol/water (1:1). The tubes containing the mixture were shaken and centrifugated at 5000× g for 5 min in a Minispin® plus centrifuge (Eppendorf AG, Hamburg, Germany). Then, they were let to rest until complete separation of the phases occurred. After that, samples of 100 μL were taken from each phase. Radioactivity in the aliquots was quantified in an automated Wizard^2™ 3” 2480 gamma counter (PerkinElmer, Shelton, CT, USA). From there, the logarithm of P was determined from the ratio of the activity in organic phase to that in the aqueous phase.

rodent serum proteins = assay: in vitro; format: in vitro ADME
Procedure: (§1) SPB was determined via incubation of 50 μL of [^68Ga]Ga-DOTA-UBI29-41 with 450 μL of rodent serum at 37 °C and under gentle shaking at 450× g. At 30 and 60 min, proteins were separated via ultracentrifugation at 14,000× g using Amicon® 10 kDa filters (Merck Millipore, São Paulo, Brazil). The supernatant and pellet were conditioned in microtubes and their radioactivity was quantified in an automated gamma counter. The percentage of SPB was defined by the ratio between the radioactivity in the pellet and the total radioactivity, given by the sum of the radioactivities of the pellet and the supernatant.

in vitro = in vitro ADME, rodent; settings: rodent, serum
Procedure: as §1

[2] = tested on: methicillin-resistant Staphylococcus aureus (MRSA); format: in vivo; settings: healthy and MRSA-infected BALB/c mice, 30 and 60 min after i.v. administration, n = 5 per time point
Procedure: The MRSA bacterial strain was prepared in two steps: pre-inoculum and inoculum. In the pre-inoculum phase, 10 mL of Luria Bertani (LB) medium and 20 μL of ampicillin (500 mg/mL) were added to MRSA (50–100 IU). The mixture was maintained overnight at 37 °C and under shaking at 200× g. In the inoculum phase, 20 mL of LB medium, 500 μL of the pre-inoculum preparation content and 40 μL of ampicillin (500 mg/mL) were combined. This new product was maintained at 37 °C and under shaking at 200× g until it reached an absorbance of 0.8–1.0. This quantification was carried out with an LGI-VS-721N spectrophotometer (LGI Scientific, São Paulo, Brazil). At this point, the content was manually homogenized and 1 mL samples were separated for centrifugation at 14,000× g for 5 min. Supernatants were removed and pellets were resuspended in 100 μL of PBS containing 10^9 CFU.
Male BALB/c mice aged between 6 and 8 weeks were used in this work. […]
For the ex vivo biodistribution study, [^68Ga]Ga-DOTA-UBI29-41 was administered intravenously through the caudal vein of the mice (~5 MBq/100 μL) in control and infected animals. […] Organs were removed and weighed, and the radioactivity was quantified in a gamma counter. Percentages of injected activity per gram of organ (% IA/g) were determined, as well as the ratio of target (right tight muscle) to non-target (left tight muscle).

## CSCC[C@H](NC(=O)[C@H](CCCNC(=N)N)NC(=O)[C@H](CCCNC(=N)N)NC(=O)[C@H](CCCCN)NC(=O)[C@H](C)NC(=O)[C@H](CCCNC(=N)N)NC(=O)CNC(=O)[C@@H](NC(=O)CN1CCN(CC(=O)O)CCN(CC(=O)O)CCN(CC(=O)O)CC1)[C@@H](C)O)C(=O)N[C@@H](CCC(N)=O)C(=O)N[C@@H](Cc1ccc(O)cc1)C(=O)N[C@@H](CC(N)=O)C(=O)N[C@@H](CCCNC(=N)N)C(=O)N[C@@H](CCCNC(=N)N)C(=O)O [[^68Ga]Ga-DOTA-UBI29-41, [^68Ga]Ga-DOTA-Ubiquicidin29-41, metal not drawn] ({DOTA}-TGRAKRRMQYNRR-OH)
[1]
  Log P: –3.63 ± 0.17
Rodent serum proteins
  Binding to rodent serum proteins (SPB): 60%
In vitro
  fraction unbound at 30 min: 0.398
  fraction unbound at 60 min: 0.559
[2]
  Blood clearance and excretion: fast blood depuration with urinary excretion
